According to publication PMC10311653 (ACS Central Science, 2023):
Where two headings read alike, the source gives them in different places.

B1: Q15Kcr-H11 phage (scFv, V domains shown)
VH: EVQLQQSGAELVKTGASVKLSCTASGFSIKDTYIHWVKQRPEQGLEWIGRIDPDPATINTKYDPHFQDKATITADTSSNTTYLQLSSLTSEDTAVYYCAIHYYGSFPYWGQGTLVTVSA
VL: DIQMTQTTSSLSASLGDRVTISCRASQDISNYLNWYQQKPDGTVKLLIYFTSRLHSGVPSRFSGSGSGTDYSLTISNLEQEDIATYFCQQGNTLPYTFGGGTKLELK
notes: mouse scFv from the Q15Kcr immunization library; source: E. coli XL1-Blue with M13KO7 (ΔpIII) hyperphage, monoclonal phage, PEG 8000/NaCl precipitated
B2: E64Kcr-A4-mFc (Fc fusion, mouse)
VH: EVKLEESGGGLVQPGGSMKLSCVASGFTFSNYWMNWVRQSPEKGLEWVAEIRLKSNNYATPYAESVKGRFTISRDDSKSSVYLQMNNLRAEDTGIYYCTRGGIFLAYWGQGTLVTVSA
VL: DIQLTQPTSSLSASLGDRVTISCRASQDISNYLNWYQQKPDGTVKLLIYYTSRLHSGVPSRFSGSGSGTDYSLTISNLEQEDIATYFCQQGNTLPYTFGGGTKLELK
notes: as the scFv of m29; source: HEK 293F, transfected, purified (Protein A, Superdex 200 SEC)
B3: Q15CK-A8 (antibody, V domains shown)
VH: EVKLQESGAELVKPGASVKLSCTASGFNIEDTYIHWVKQRPEQGLEWIGRIDPANGNTKYDPKFQGKATITEDTSSNTAYLQLSSLTSEDTAVYYCAIHYYGSFAYWGQGTLVTVSA
VL: DIQITQSRKFMSTSVGDRVSVTCKASQNVGTNVAWYQQKPGQSPKALIYSASYRYSGVPDRFTGSGSGTDFTLTISNVQSEDLAEYFCQQYNSYPYTFGGGTKLELK
B4: Q15Kcr-D1 phage (scFv, V domains shown)
VH: EVQLQESGAELVKPGASVKLSCTASGFNIEDTYIHWVKQRPEQGLEWIGRIDPANDNTKYDPKFQGKATITEDTSSNTAYLQLSSLTSEDTAVYYCAIHYYGSFAYWGQGTLVTVSA
VL: DILMTQSRKFMSTSVGDRVSVTCKASQNVGTNVAWYQQKPGQSPEALIYSASYRYSGVPDRFTGSGSGTDFTLTISNVQSEDLADYFCQQYNTYPYTFGGGTKLEMK
notes: as for B1
B5: Q15Kcr-C7 phage (scFv, V domains shown)
VH: EVQQQQSGTELMKPGASVKISCKATGYTFSSYWIEWVKQRPGHGLEWIGEILPGSGSTNYNEKFKGKATFTADTTSNTAYMQLSSLTSEDSAVYYCASGGYRPSMDYWGQGISVTVSS
VL: GIELTQSQKFTSTSVGDRVSVTCKASQNVGTNVAWYQQKPGQSPKALIYQASYRYSGVPDRFTGSGSGTDFTLTISNVQSEDLAEYFCQQYNSYPLTFGAGTKLELK
notes: as for B1
B6: Q15Kcr-C1 phage (scFv, V domains shown)
VH: EVQLQQSGAELVKPGASVKLSCTASGFNIKDTYIHWVKQRPEQGLEWIGRIDPADGNTKYDPKFQGKATITADTSSNTAYLQLSSLTSEDTAVYYCAIHYYGSFPYWGQGTLVTVSA
VL: DIQMTQTTSSLSASLGDRVSISCRTSQDISNYLNWYQQKPDGTLKLLIYFTSRLHSGVPSRFSGSGSGTDYSLTISNLEQEDIATYFCQQGKTLPYTFGGGTKLELK
notes: as for B1
B7: Q15Kcr-B6 phage (scFv, V domains shown)
VH: EVQLQESGAELVKPGASVKLSCTASGFNIKDTYIHWVKQRPEQGLEWIGRIDPANVNTKYDPKFQGKATITADTSSNTAYLQLSSLTSEDTAVYYCAIHYYGSFAHWGQGTLVTVPA
VL: DIVMTQSHKFMSTSVGDRVSITCKASQDVGTAVAWYQQKPGQSPKLLIYWASTRHTGVPDRFTGSGSGTDFTLTISNVQSEDLADYFCQQYSSYPLTFGSGTKLEIK
notes: as for B1
B8: Q15Kcr-H2 phage (scFv, V domains shown)
VH: EVQLQQSGAELVKPGASVKLSCTASGFNIKDTYIHWVKQRPEQGLEWIGRIDPANVNTKYDPKFQGKATITADTSSNTAYLQLSSLTSEDTAVYYCAIHYYGSFAHWGQGTLVTVSA
VL: DILMTQSQKFMSTSVGDRVSVTCKASQNVGTNVAWYQQKPGQSPKALIYQASYRYSGVPDRFTGSGSGTDFTLTISNVQSEDLAEYFCQQYNSYPYTFGGGTKLELK
notes: as for B1
B9: Q15Kcr-G8-mFc (Fc fusion, mouse)
VH: EVQLQQSGAELVKPGASVKLSCTASDFNIKDTYIHWVKQRPEQGLEWIGRIDPADGNTKYDPKFQGKATITADTSSNTAYLQLSSLTSEDTAVYYCAIHYYGSFPYWGQGTLVTVSA
VL: DIVMTQAHKFMSTSVGDRVSITCQASQDVGTAVAWYQQKPGQSPKLLIYWASTRHTGVPDRFTGSGSGTDFTLTISNVQSEDLADYFCQQYSSYPYTFGGGTKLEIK
notes: as the scFv of m42; source: HEK 293F, transfected, purified (Protein A, Superdex 200 SEC)
B10: Q15CK-B10 (antibody, V domains shown)
VH: EVQLQQSGTELVKPGASVKLSCTASGFNIKDTYMHWVKQRPEQGLEWIGRIDPANDNTKYDPKFQGKATITTDTSSNTAYLQLSSLTSEDTAVYYCAIHYYGSFPYWGQGTLVTVSA
VL: DIVMTQSQKFMSTSVGDRVSITCKASQNVGTAVAWYQQKPGQSPKLLIYSASNRYTGVPDRFTGSGSGTDFTLTISNMQSEDLADYFCQQYSSYPYTFGGGTKLELK
B11: Q15CK-H5 (antibody, V domains shown)
VH: EVQLQQSGAELVKPGASVRLSCTASGFNIKDTYMHWVRQRPEQGLEWIGRIDPANGNTKYDPKSQGKATLTADTSSNTAYLHLSSLTSEDTAVYYCAIHYYGSFAYWGQGTLVTVSA
VL: DIVMTQSQKFMSTSVGDRVSVTCKASQNVGTNVAWYQQKPGQSPKALIYSASYRYSGVPDRFTGSGSGTDFTLTISNVQSEDLAEYFCQQYNSYPLTFGAGTKLELK
B12: Q15Kcr-A3 phage (scFv, V domains shown)
VH: EVQLQQSGAELVKPGASVKLSCTASGFNIKDTYIHWVKQRPEQGLEWIGRIDPANGNTKYDPKFQGKATIRADTSSNTAYLQLSSLTSEDTAVYYCAIHYYGSFAYWGQGTLVTVSA
VL: DILMTQSHKFMSTSVGDRVSITCKASQDVGTAVAWYQQKPGQSPKLLIYWASTRHTGVPDRFTGSGSGTDFTLTISNVQSEDLADYFCQQYSSYPYTFGGGTKLEIK
notes: as for B1
B13: CL-E2 phage (scFv, V domains shown)
VH: EVQLKESGAELMKPGASVKISCKATGYTFSSYWIEWVKQRPGHGLEWIGEILPGSGSTNYNEKFKGKATFTADISSNTAYMQLSSLTSEDSAVYYCASGGYRPSMDFWGQGTSVTVSS
VL: DIVMTQSQKFMSTSVGDRVSITCKASQNVRTAVAWYQQKPGQSPKALIYLASNRHTGVPDRFTGSGSGTDFTLTITNVQSEDLADYFCLQHWNYPLTFGAGTKLELK
notes: mouse scFv from the E64AcrK immunization library; also called phage CL-E2; source: E. coli XL1-Blue with M13KO7 (ΔpIII) hyperphage, monoclonal phage, PEG 8000/NaCl precipitated
B14: E64Kcr-B9-mFc (Fc fusion, mouse)
VH: EVQLQQSGAELVKPGASVKLSCTASGFNIKDTYMHWVKQRPEQGLEWIGRIDPANGNTKYDPKFQGKATITADTSSNTAYLQLSSLTSEDTAVYYCAIHYYGSLPVWGAGTTVTVSS
VL: GIVMTQSHKFMSTSVGDRVSITCKASQDVGTAVAWYQQKPGQSPKLLIYWASTRHTGVPDRFTGSGSGTDFTLTISNVQSEDLADYFCQQYSSYPLTFGAGTMLELK
notes: as the scFv of m30; source: HEK 293F, transfected, purified (Protein A, Superdex 200 SEC)
B15: Q15CK-B1 (antibody, V domains shown)
VH: EVQLQQSGPQLVRPGASVKISCKASGYSFTSYWMHWVKQRPGQGLEWIGMIDPSDSETRLNQKFKDKATLTVDKSSSTAYMQLSSPTSEDSAVYYCARWDSWGQGTLVTVSA
VL: DIVMTQSPSSLTVTAGEKVTMSCKSSQSLSKSGNQKNYLTWYQQKPGQPPKLLIYWASTRESGVPDRFTGSGSGTDFTLTISSVQAEDLAVYYCQNDYSYPFTFGSGTKLEIK
B16: Q15CK-D6 (antibody, V domains shown)
VH: EVQLQQSGPQLVRPGASVKISCKASGYSFTNYWMHWVKQRPGQGLEWIGMIDPSDSETRLDQKFKDKATLTVDKSSSTAYMQLSSPTSEDSAVYYCARWDSWGQGTLVTVSA
VL: DILLTQSPSSLTVTAGEKVTMSCKSSQSLLNSGNQKNYLTWYQQKPGQPPKLLIYWASTRESGVPDRFTGSGSGTDFTLTISSVQAEDLAVYYCQNDYSYPFTFGSGTKLEIK
B17: Q15CK-D4 (antibody, V domains shown)
VH: EVQLVESGGGLVQPGGSRKLSCAASGFTFSTFGMHWVRQAPEKGLEWVAYISSGSYTIYYADTVKGRFTISRDNPKNTLFLQMTSLRSEDTAMYYCARDDYDVNYYAMDYWGQGTSVTVSS
VL: DIVLSQSPAIMSASPGEKVTMTCSASSSVSYMHWYQQKSSTSPKLWIYDTSKLASGVPGRFSGSGSGNSYSLTISSMEAEDVATYYCFQGSGYPYTFGGGTKLEIK
B18: E64Kcr-A5-mFc (Fc fusion, mouse)
VH: EVQLVESGGGLVQPGGSRKLSCAASGFTFSSFGMHWVRQAPEKGLEWVAYISSGSYTIYYADTVKGRFTISRDNPKNTLFLQMTSLRSEDTAMYYCTRDDYDVRAYAMDYWGQGTSVTVSS
VL: DIVMTQPSSSFSVSLGDRVTITCKASEDIYNRLAWYQQKPGNAPRLLISGATTLETGVPSRFSGSGSGKDYTLTITSLQTEDVATYYCQQYWSTPLTFGAGTKLELK
notes: as the scFv of m25; source: HEK 293F, transfected, purified (Protein A, Superdex 200 SEC)
B19: E64Kcr-G9-mFc (Fc fusion, mouse)
VH: EVQLVESGGGLVQPGGSRKLSCAASGFTFSSFGMHWVRQAPEKGLEWVAYISSGSSTIYYADTVKGRFTISRDNPKNTLFLQMTSLRSEDTAMYYCARDDYDVRAYAMDYWGQGTSVTVSS
VL: DIQMIQSPASLSASVGETVTITCRASQNIYSYLAWYQQKQGKSPQLLVYNAKTLAEGVPSRFSGSGSGTQFSLKINSLQPEDFGSYYCQHHYGTPLTFGAGTKLELK
notes: as the scFv of m27; source: HEK 293F, transfected, purified (Protein A, Superdex 200 SEC)

What was measured:
[1] = target: T1, wildtype (WT) human interleukin-1β (Homo sapiens, UniProt P01584); test: ELISA; phage ELISA; antigen (100 ng) coated on the plate; phages added (pfu titration) in 3% skim milk in DPBST, 2 h at 37 °C; settings: one partner purified
T1 construct: human interleukin-1β (hIL-1β); pET28a vector; also called WT hIL-1β; hIL-1β; source: E. coli BL21 (DE3), purified (Ni-NTA, Superdex 75 SEC)

hIL-1β V151A = target: T2, hIL-1β V151A (Homo sapiens, UniProt P01584, point mutant); test: ELISA; antigen (100 ng) coated on the plate; scFv-mFc added in 3% skim milk in DPBST, 2 h at 37 °C; EC50; settings: both partners purified
T2 construct: human interleukin-1β (hIL-1β); source: E. coli BL21 (DE3), purified (Ni-NTA, Superdex 75 SEC)

[2] = target: T1, wildtype (WT) human interleukin-1β; test: as above; settings: both partners purified
[3] = target: T1, wildtype (WT) human interleukin-1β
hIL-1βQ15Kcr = hIL-1βQ15Kcr (Homo sapiens, UniProt P01584, point mutant, Nε-crotonyl-L-lysine (Kcr) at 15)
hIL-1βQ15G = target: T3, hIL-1βQ15G (Homo sapiens, UniProt P01584, point mutant); test: not stated; binding affinity of Q15Kcr-G8-mFc for hIL-1β, hIL-1βQ15Kcr and hIL-1βQ15G (Figure S13E); settings: both partners purified
T3 construct: human interleukin-1β (hIL-1β); source: E. coli BL21 (DE3), purified (Ni-NTA, Superdex 75 SEC)

| Binder | binding result [1] | binding result [3] | binding result (hIL-1βQ15Kcr) | other results |
| --- | --- | --- | --- | --- |
| B1 | binds |  |  |  |
| B2 |  |  |  | binding result (hIL-1β V151A): binds; EC50 [2]: 0.121 nM |
| B3 |  | binds | binds |  |
| B4 | binds |  |  |  |
| B5 | binds |  |  |  |
| B6 | binds |  |  |  |
| B7 | binds |  |  |  |
| B8 | binds |  |  |  |
| B9 |  |  |  | fold decrease of affinity (hIL-1βQ15G): ~10 fold |
| B10 |  | binds | binds |  |
| B11 |  | binds | binds |  |
| B12 | binds |  |  |  |
| B13 | binds |  |  |  |
| B14 |  |  |  | binding result (hIL-1β V151A): binds; EC50 [2]: 0.04 nM |
| B15 |  | binds | binds |  |
| B16 |  | binds | binds |  |
| B17 |  | binds | binds |  |
| B18 |  |  |  | binding result (hIL-1β V151A): binds; EC50 [2]: 0.034 nM |
| B19 |  |  |  | binding result (hIL-1β V151A): binds; EC50 [2]: 0.197 nM |
